# Reference: paper PMC4821239, “Molecular architecture of the Dam1 complex–microtubule interaction” (Open Biology, 2016)
# T1: Dam1 (budding yeast, UniProt P53267 1-343)
# T1 construct: Dam1, subunit of the budding yeast Dam1 complex; Subunit inside the recombinant 10-subunit complex; also called Dam1 subunit; source: expressed and purified as part of the Dam1 complex as described [3]
# T1 sequence (looked up): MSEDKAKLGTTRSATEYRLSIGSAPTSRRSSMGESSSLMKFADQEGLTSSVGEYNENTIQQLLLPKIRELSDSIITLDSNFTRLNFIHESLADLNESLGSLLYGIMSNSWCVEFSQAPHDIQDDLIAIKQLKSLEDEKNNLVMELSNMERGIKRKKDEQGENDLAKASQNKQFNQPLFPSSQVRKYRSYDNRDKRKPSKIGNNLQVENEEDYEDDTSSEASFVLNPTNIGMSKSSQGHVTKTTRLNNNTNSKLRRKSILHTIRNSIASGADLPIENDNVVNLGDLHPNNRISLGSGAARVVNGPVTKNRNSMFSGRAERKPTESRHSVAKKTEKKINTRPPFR
# B1: Duo1 (natural protein, budding yeast, UniProt P53168 1-247, looked up)
# chain: MSEQSQLDDSTIDKLIPQIFNEMRSNLNNTTNKFPKSTGGGASDNISANSNSIRSFNSITTQSLLKESESLDKITAMIKNVTAALKNNLPVYVNQVHEVCKSTNSILDSWINIHSQAGYIHKLMSDQTYLKLINDRLHNENVNTNDEDGSTLHNVIALKKKEILDLRQKLENRKGEKDAAPAKPPNQGLNPRYGVQSGRRPVPSAGISNNGRVRKTHVPASKRPSGIPRVTNRWTKPTASSSRKMFR
# notes: Duo1, subunit of the budding yeast Dam1 complex; Subunit inside the recombinant 10-subunit complex; also called Duo1 subunit; source: expressed and purified as part of the Dam1 complex as described [3]
# B2: Spc19 (natural protein, budding yeast, UniProt Q03954 1-165, looked up)
# chain: MTDALEQSVLALEGTVSVLKDSVESLKCANEPSTNLASTMLQTKRVFRLVPEYDVERSKLDLIEEVEPLVRTLGDKLRKSMGRMQRELDTLQQTYELNDLRLKKNISMDDDDALNSPDMGQEYEGRDADDVVMMASSTNEELEELKKLKEKKKQLENKLEILKQK
# notes: Spc19, subunit of the budding yeast Dam1 complex; Subunit inside the recombinant 10-subunit complex; also called Sp19; source: expressed and purified as part of the Dam1 complex as described [3]
# B3: Ask1 (natural protein, budding yeast, UniProt P35734 1-292, looked up)
# chain: MDSASKEETLEKLDQEITVNLQKIDSNLSFCFHKITQDIIPHVATYSEICERIMDSTEWLGTMFQETGLVNLQANAAAPVGNAPVKSLVSNNVGIFPTSAEEASRQSQTDNGPNEADSAVHVNRDVHSMFNNDSIDDFHTANITSTGQILKLPDSSDEDTGSEAVPSREQTDLTGEGHGGADDEQDESTIQRQSRKRKISLLLQQQYGSSSSMVPSPIVPNKMRKQLAHEEHINNDGDNDDENSNNIESSPLKQGHHHPKGQADDNNEGPDEEESTKEVPKPGTIIHFSTNR
# notes: Ask1, subunit of the budding yeast Dam1 complex; Subunit inside the recombinant 10-subunit complex; source: expressed and purified as part of the Dam1 complex as described [3]
# B4: Spc34 (natural protein, budding yeast, UniProt P36131 1-295, looked up)
# chain: MGESLDRCIDDINRAVDSMSTLYFKPPGIFHNAILQGASNKASIRKDITRLIKDCNHDEAYLLFKVNPEKQSVSRRDGKEGVFDYVIKRDTDMKRNRRLGRPGEKPIIHVPKEVYLNKDRLDLNNKRRRTATTSGGGLNGFIFDTDLIGSSVISNSSSGTFKALSAVFKDDPQIQRLLYALENGSVLMEEESNNQRRKTIFVEDFPTDLILKVMAEVTDLWPLTEFKQDYDQLYHNYEQLSSKLRFIKKEVLLQDDRLKTMSQYHPSSSHDVAKIIRKEKDEIRRLEMEIANLQE
# notes: Spc34, subunit of the budding yeast Dam1 complex; Subunit inside the recombinant 10-subunit complex; source: expressed and purified as part of the Dam1 complex as described [3]
# Assays:
# Dam1 [1] = biological target: T1, Dam1; test: cross-linking; BS3, size-exclusion fraction of the Dam1 complex Duo1Δ184 eluting as the full complex, mass spectrometry; conditions: both partners purified
# [2] = biological target: the molecule itself; test: cross-linking; BS3, Dam1 complex at 0.05 mg/ml in solution; cross-linked species (approx. 110, 220 and 440 kDa) separated by SDS-PAGE, bands cut out, in-gel trypsin digestion, mass spectrometry
# Ask1 [3] = biological target: B3; test: cross-linking; EDC with Sulfo-NHS, Dam1 complex assembled on taxol-stabilized microtubules in BRB80, pellet washed, room temperature 1 h, digested in solution, mass spectrometry; conditions: both partners purified
# Dam1 [4] = biological target: T1, Dam1; test: cross-linking; BS3, Dam1 complex at 0.3 mg/ml in BRB80, room temperature 40-60 min, digested in solution, mass spectrometry; some links may be between oligomerizing complexes; conditions: both partners purified
# Spc19 = biological target: B2; test: cross-linking; BS3, Dam1 complex at 0.05 mg/ml in solution; cross-linked species (approx. 110, 220 and 440 kDa) separated by SDS-PAGE, bands cut out, in-gel trypsin digestion, mass spectrometry; conditions: both partners purified
# Ask1 [5] = biological target: B3; test: cross-linking; BS3, Dam1 complex at 0.3 mg/ml in BRB80, room temperature 40-60 min, digested in solution, mass spectrometry; some links may be between oligomerizing complexes; conditions: both partners purified
# Spc34 [6] = biological target: B4; test: as above; conditions: both partners purified
# Duo1 = biological target: B1; test: as above; conditions: both partners purified
# Spc34 [7] = biological target: B4; test: cross-linking; BS3, Dam1 complex at 0.05 mg/ml in solution; cross-linked species (approx. 110, 220 and 440 kDa) separated by SDS-PAGE, bands cut out, in-gel trypsin digestion, mass spectrometry; conditions: both partners purified
binder,measurement,setting,value
"Duo1Δ184 (domain or fragment, budding yeast, UniProt P53168 1-183, looked up, Duo1, budding yeast; stop codon inserted at position 184; Subunit inside the Dam1 complex Duo1Δ184; also called Duo1 lacking its C terminus (Δ184); source: purified as part of the Dam1 complex Duo1Δ184 (Ni–NTA, Superose 6 size-exclusion chromatography)) MSEQSQLDDSTIDKLIPQIFNEMRSNLNNTTNKFPKSTGGGASDNISANSNSIRSFNSITTQSLLKESESLDKITAMIKNVTAALKNNLPVYVNQVHEVCKSTNSILDSWINIHSQAGYIHKLMSDQTYLKLINDRLHNENVNTNDEDGSTLHNVIALKKKEILDLRQKLENRKGEKDAAPAK",binding result,Dam1 [1],binds
"Dam1 complex (complex, budding yeast, Dam1, budding yeast; Duo1, budding yeast; Dad1, budding yeast; Dad2, budding yeast; Dad3, budding yeast; Dad4, budding yeast; Hsk3, budding yeast; Ask1, budding yeast; Spc19, budding yeast; Spc34, budding yeast; 10-subunit complex; also called heterodecameric Dam1 complex; wild-type Dam1 complex; source: expressed and purified as described [3]; copies: + + + + + + + + +) chain 1: MSEDKAKLGTTRSATEYRLSIGSAPTSRRSSMGESSSLMKFADQEGLTSSVGEYNENTIQQLLLPKIRELSDSIITLDSNFTRLNFIHESLADLNESLGSLLYGIMSNSWCVEFSQAPHDIQDDLIAIKQLKSLEDEKNNLVMELSNMERGIKRKKDEQGENDLAKASQNKQFNQPLFPSSQVRKYRSYDNRDKRKPSKIGNNLQVENEEDYEDDTSSEASFVLNPTNIGMSKSSQGHVTKTTRLNNNTNSKLRRKSILHTIRNSIASGADLPIENDNVVNLGDLHPNNRISLGSGAARVVNGPVTKNRNSMFSGRAERKPTESRHSVAKKTEKKINTRPPFR chain 2: MSEQSQLDDSTIDKLIPQIFNEMRSNLNNTTNKFPKSTGGGASDNISANSNSIRSFNSITTQSLLKESESLDKITAMIKNVTAALKNNLPVYVNQVHEVCKSTNSILDSWINIHSQAGYIHKLMSDQTYLKLINDRLHNENVNTNDEDGSTLHNVIALKKKEILDLRQKLENRKGEKDAAPAKPPNQGLNPRYGVQSGRRPVPSAGISNNGRVRKTHVPASKRPSGIPRVTNRWTKPTASSSRKMFR chain 3: MMASTSNDEEKLISTTDKYFIEQRNIVLQEINETMNSILNGLNGLNISLESSIAVGREFQSVSDLWKTLYDGLESLSDEAPIDEQPTLSQSKTK chain 4: MDSIDEQIAIKRKELQSLQKITSLTDGLKIQLTELNEQIKEMGMNADSVAQLMNNWDSIINNISQASLGLLQYAEGDYEIGPWKDSKKKESEQSNETGLEAQENDKNDEDNDEDEDLVPLPETMVRIRVDGNE chain 5: MEHNLSPLQQEVLDKYKQLSLDLKALDETIKELNYSQHRQQHSQQETVSPDEILQEMRDIEVKIGLVGTLLKGSVYSLILQRKQEQESLGSNSK chain 6: MENPHEQVQANILSRIIGNVKRLNESVAILNQELVTINNRNKNLEIMGAICDNYHSSVQFNLEATNNKKPPL chain 7: MNANKQRQYNQLAHELRELQTNLQETTKQLDIMSKQCNENLVGQLGKVHGSWLIGSYIYYMEQMLGKTQ chain 8: MDSASKEETLEKLDQEITVNLQKIDSNLSFCFHKITQDIIPHVATYSEICERIMDSTEWLGTMFQETGLVNLQANAAAPVGNAPVKSLVSNNVGIFPTSAEEASRQSQTDNGPNEADSAVHVNRDVHSMFNNDSIDDFHTANITSTGQILKLPDSSDEDTGSEAVPSREQTDLTGEGHGGADDEQDESTIQRQSRKRKISLLLQQQYGSSSSMVPSPIVPNKMRKQLAHEEHINNDGDNDDENSNNIESSPLKQGHHHPKGQADDNNEGPDEEESTKEVPKPGTIIHFSTNR chain 9: MTDALEQSVLALEGTVSVLKDSVESLKCANEPSTNLASTMLQTKRVFRLVPEYDVERSKLDLIEEVEPLVRTLGDKLRKSMGRMQRELDTLQQTYELNDLRLKKNISMDDDDALNSPDMGQEYEGRDADDVVMMASSTNEELEELKKLKEKKKQLENKLEILKQK chain 10: MGESLDRCIDDINRAVDSMSTLYFKPPGIFHNAILQGASNKASIRKDITRLIKDCNHDEAYLLFKVNPEKQSVSRRDGKEGVFDYVIKRDTDMKRNRRLGRPGEKPIIHVPKEVYLNKDRLDLNNKRRRTATTSGGGLNGFIFDTDLIGSSVISNSSSGTFKALSAVFKDDPQIQRLLYALENGSVLMEEESNNQRRKTIFVEDFPTDLILKVMAEVTDLWPLTEFKQDYDQLYHNYEQLSSKLRFIKKEVLLQDDRLKTMSQYHPSSSHDVAKIIRKEKDEIRRLEMEIANLQE",stoichiometry N,[2],2
"Dad2 (natural protein, budding yeast, UniProt P36162 1-133, looked up, Dad2, subunit of the budding yeast Dam1 complex; Subunit inside the recombinant 10-subunit complex; source: expressed and purified as part of the Dam1 complex as described [3]) MDSIDEQIAIKRKELQSLQKITSLTDGLKIQLTELNEQIKEMGMNADSVAQLMNNWDSIINNISQASLGLLQYAEGDYEIGPWKDSKKKESEQSNETGLEAQENDKNDEDNDEDEDLVPLPETMVRIRVDGNE",binding result,Ask1 [3],binds
same,binding result,Dam1 [4],binds
same,binding result,Spc19,binds
B1,binding result,Ask1 [5],binds
same,binding result,Dam1 [4],binds
same,binding result,Spc34 [6],binds
B2,binding result,Duo1,binds
same,binding result,Ask1 [5],binds
same,binding result,Dam1 [4],binds
same,binding result,Spc34 [7],binds
B3,binding result,Dam1 [4],binds
same,binding result,Spc34 [6],binds
B4,binding result,Dam1 [4],binds
